Paper PMC9991911, “IMM0306, a fusion protein of CD20 mAb with the CD47 binding domain of SIRPα, exerts excellent cancer killing efficacy by activating both macrophages and NK cells via blockade of CD47-SIRPα interaction and FcɣR engagement by simultaneously binding to CD47 and CD20 of B cells” (Leukemia, 2022)

How the values were obtained:
[1] = molecular target: T1, CD20 on Raji-CD47KO cells (Homo sapiens (endogenous, Raji-CD47KO), UniProt P11836); experiment: flow cytometry on cells; cultured cells (Jurkat; Raji-CD47KO; cells with both targets) stained with IMM0306, then secondary antibody anti-human IgG (Fc)-FITC; data analysed with GraphPad Prism 8.0; conditions: one partner purified
T1 construct: CD20, endogenous on Raji-CD47KO cells; also called CD20 target on Raji-CD47KO cells; CD20-positive cells (Raji-CD47KO); source: endogenous, on Raji-CD47KO cells (Raji with human CD47 knockout, in-house)
T1 sequence (P11836 whole entry): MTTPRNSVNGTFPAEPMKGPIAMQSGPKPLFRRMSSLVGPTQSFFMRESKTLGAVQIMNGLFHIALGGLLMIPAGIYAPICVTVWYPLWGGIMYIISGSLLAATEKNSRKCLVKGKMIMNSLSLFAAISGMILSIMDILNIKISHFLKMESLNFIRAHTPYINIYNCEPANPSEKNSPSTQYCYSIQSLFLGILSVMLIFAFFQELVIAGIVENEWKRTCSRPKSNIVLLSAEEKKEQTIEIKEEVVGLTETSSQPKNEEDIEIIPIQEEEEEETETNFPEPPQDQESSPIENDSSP

[2] = molecular target: CD20 (Biacore assay) (UniProt P11836); experiment: SPR; Biacore assay; who was immobilised and the conditions not given
CD20 (Biacore assay), sequence (P11836 whole entry): as above

[3] = molecular target: CD47 (Biacore assay) (UniProt Q08722); experiment: as above
CD47 (Biacore assay), sequence (Q08722 19-323): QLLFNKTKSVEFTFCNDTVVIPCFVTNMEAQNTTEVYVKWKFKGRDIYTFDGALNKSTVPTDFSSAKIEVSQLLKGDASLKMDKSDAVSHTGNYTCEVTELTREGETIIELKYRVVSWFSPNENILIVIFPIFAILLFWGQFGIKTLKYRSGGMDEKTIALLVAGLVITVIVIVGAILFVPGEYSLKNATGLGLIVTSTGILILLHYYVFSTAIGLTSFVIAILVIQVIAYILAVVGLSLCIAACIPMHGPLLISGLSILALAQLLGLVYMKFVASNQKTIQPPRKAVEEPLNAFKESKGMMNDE

[4] = molecular target: CD47 on Jurkat cells (human (endogenous in Jurkat)) (UniProt Q08722); experiment: flow cytometry on cells; cultured cells (Jurkat; Raji-CD47KO; cells with both targets) stained with IMM0306, then secondary antibody anti-human IgG (Fc)-FITC; data analysed with GraphPad Prism 8.0
CD47 on Jurkat cells (human (endogenous in Jurkat)), sequence (Q08722 19-323): as above

[5] = molecular target: CD47/CD20 double targets; experiment: as above

B1: IMM0306, a fusion protein of CD20 mAb with the CD47 binding domain of SIRPα (bispecific antibody, V domains shown)
VH: QVQLQQPGAELVKPGASVKMSCKASGYTFTSYNMHWVKQTPGRGLEWIGAIYPGNGDTSYNQKFKGKATLTADKSSSTAYMQLSSLTSEDSAVYYCARSTYYGGDWYFNVWGAGTTVTVSA
VL: QIVLSQSPAILSASPGEKVTMTCRASSSVSYIHWFQQKPGSSPKPWIYATSNLASGVPVRFSGSGSGTSYSLTISRVEAEDAATYYCQQWTSNPPTFGGGTKHELK
notes: IgG1; only the SIRPα D1 part can be built; also called CD47xCD20 mAb trap; source: in-house developed CHO-K1 cell expression system; copies: 2 +
EC50 [1]: 18.9 nM
Kd [2]: 2.45 nM
Kd [3]: 4.91 nM
EC50 [4]: 16.8 nM
EC50 [5]: 11.5 nM
